Test: soluble on expression in E. coli; label from the status in PepcDB or PDB records

Sequence	soluble on expression in E. coli
MSRKNISLTESLEEYIFRNSVREPDSFLKLRKETGTLAQANMQISPEEGQFLNILTKISGAKRIIEIGTFTGYSSLCFASALPEDGKILCCDVSEEWTNVARKYWKENGLENKIFLKLGSALETLQVLIDSKSAPSWASDFAFGPSSIDLFFLDADKENYPNYYPLILKLLKPGGLLIADNVLWDGSVADLSHQEPSTVGIRKFNELVYNDSLVDVSLVPIADGVSLVRKRLEHHHHHH	soluble
MGSDKIHHHHHHMGDNLILSFRPDLQIKEEAGKIYLQSPVRSLVCQRVSRGLRQLMKTLTTGSGSEDFLSEPVFKEDGAGEVAKFYYHLQQFIERGFISYNVMMEQEILAIYTPFSAAPLYNEKLFKQKQRYRLSRFTYSRRDGQEIILESPLANGRVVLTHWLAAAVLHLLAEACTAGEISMQFPALPKKSLQLFLELLLSAGMLEEVDDAGISAGEGDEVLQQWEFHDLLFHARSRLGPHEQPVGGTYRFWGRIAPLPAVKNPMSGERIKLYRPDMEKLREDDYPFSLVLEERKSIRDYADEPISVQQLGEFLYRSARIKELIKANPPAGLLYEASYRPYPGGGAAYELEIYLAVNECEGLPGGLYHYDPWQHELEKLTTRTSEVEGLLKYCSNAAGLKELPPVSLHITARFQRVAWKYQSLTYSVILKDVGALCQTLYLVATAMDLAPTAIGSGPAKLLCRIAGLNYLQESAVGEFILGNKRI	not soluble
MSLFLIMSGAYVGQELESEFGRIPPSFLPLGNRRLFQHQVALAPQGVKVYLSLPESYVVSEIDLQWLEQNQVTIIATPDGLSLGASLVAALNISGHSLNAPLHILYGDTLFNQLPVGDDIVSVSTAKDSYNWAVLTNDDVDWLQDANTPMSHESQRIIDGYFKFSHPRELVRCITQSEWKFIAGLNRYHKSVGLSAVNSIGWLDFGHVNTYYHSKAEFTTQRAFNELTITAKWIEKSSIKNQKIAAEAYWFDNLPMAMRGFIPQYLGSQNSEGKISYRLEYLYLTALNELFVFSRLPSQIWQKILASAVEFLSLCLEQAVEPNAPINTLDILFADKTALRLNEFCAARHITLEDQWQFAGQDISLAQILRDSQKHLPDGKPLLGVLHGDFCFSNILYDFRANKIKTIDPRGMTPDGQKTLYGDIRYDLAKLSHSILGLYDWIIAGYYHVEIADNAIELKIAEQSHHKETQQGFIELIEQTFGLTAKNLYAMQIQLFLSMLPLHADDRRRQDALFANAFRLHQILLRLDQEGHHHHHH	soluble
MAKYFGTDGIRGEVANSTITVEFTQKLGNAVGSLINQKNYPKFVIVGQDTRSSGGFLKFALVSGLNAAGIDVLDLGVVPTPVVAFMTVKHRAAAGFVITASHNKFTDNGIKLFSSNGFKLDDALEEEVEDMIDGDFIYQPQFKFGSYKILANAIDEYIESIYSRFAKFVNYKGKVVVDCAHGAASHNFEALLDKFGINYVSIASNPDGLNINVGCGATCVSNIKKAVKEQKADLGISLDGDADRIIIVDENGQEIDGDGILNILAQYSDICGGTNGIVGTQMTNMSYENHYRANKIPFIRSKVGDRYVLEDLVKYGYKIGGESSGHVINLNFGTTGDGLFTAIQLLAIFSQADKPVSEFKLQGELMQQTLINVPLTKKVAREDLQKVASDVNDVEKRLGNRGRVLLRPSGTEPVLRVMVEADDKSLATNEAEYLVEKVKQKLV	soluble
MGHHHHHHSHGSHVKVKSFEKERQTEKRVLETELVDHVLQKLRTKVTDERNGREASDNLAVQNLKGSFSNASGLFEIHGATVVPIVSVLAPEKLSASTRRRYETQVQTRLQTSLANLHQKSSEIEILAVDLPKETILQFLSLEWDADEQAFNTTVKQLLSRLPKQRYLKLVCDEIYNIKVEKKVSVLFLYSYRDDYYRILF	not soluble
MLIRTEAPADILTIDRLLKHAFPTDAEANLVMRLRENGKLTLSLVACTDEGEVIGHALFSPVTLNGEDLSWQGLAPLAVHEDYRRQGIGAELIKEGFESLRDFGYPVCVVLGEPNYYARQGFNAGEEMGFECAWEVPEGAFRVAELVEGQCTGRSGRIDYAPEFSEL	not soluble
MSLSGIYEIAILGRATWQLHSLNNEGTVGNVTEPRSVRIIDPNTKKAVTTDGISGEMLKHIHTEIMWTLDDKNNLCDACKVLNPEKFNFAIKSKKATPKDVEDALKQALNTCDICDVQGFLLERPTASRKSTVEFGWALGIPEVYRDIHTHARHALGEKGKREKTEESEEEVGGVSTQMVYHRPTRSGVYAIISVFQPWRIGLNEAKQDKYTYDANDNARERRYQLALKAYPLLFARPEGAMTTTRLPHVEDFSGVIVYSTKPIPVPIISPLKSNYVDEVKTIVENIDDSLKVAEFNGIAEFAMKIGELIKNKPYKMEFEGHHHHHH	soluble
SPAPAATYERVVYKNPSEYHYMKVCLEFQDCGVGLNAAQFKQLLISAVKDLFGEVDAALPLDILTYEEKTLSAILRICSSGLVKLWSSLTLLGSYKGKKCAFRVIQVSPFLLALSGNSRELVLD	soluble
MSLITTRTARQCGQADYGWLQARYTFSFGHYFDPKLLGYASLRVLNQEVLAPGAAFQPRTYPKVDILNVILDGEAEYRDSEGNHVQASAGEALLLSTQPGVSYSEHNLSKDKPLTRMQLWLDACPQRENPLIQKLALNMGKQQLIASPEGAMGSLQLRQQVWLHHIVLDKGESANFQLHGPRAYLQSIHGKFHALTHHEEKEGHHHHHH	not soluble
MGSDKIHHHHHHMPASDVIIAGSGPAGAMLARDLTRAGASVRILERGGETPASAPNLWKLWRRKEALHVAPGVALLRGTRVGGGSTVFYHTAISPPLEMFSHHGVEMAQDLAAVLAELPHQPLQAPLLGPTAQRIIDAARSLGLPWQTLPKMIDQELCGHGDCPPAAFWSAASLLAQAMQLGAELETGIQVNRVLFQNGRAVGVEALQKGQLRRFMGGTVILSAGGVASPVILQRSGIREAGRGFFCDPLRVGVAIGRGNGLQEAEMPMTAGFVDREAGYMLTDMTVPPNFYRAFAWAAGRVDMLAHYRHSMMIMVKIRDEISGEVNANGRVWRHFSAAEKNRMRNGMGLAADILRAAGGRRIFFSPWLAAHPGGSVRLGELLDERLSCCTPNLHVCDASVIPEPWGLPPTLTVLSLAKYLGRILLG	not soluble
METYLEIETLIKRIFNSFRHEVEAVLDKRLSGSEYRVLSLISSGLTKTSDLAKTLDVSASHITAITDTLVEEKLITRHRSEVDRRIIELKLTSNAEEFVKEIDKKKKEMIVKRFAVFSEYEQAEFRKLLKKLADGSQSNK	not soluble
MNFGESYCSFHCSWCQPLLDSLSKESCWYLNFQSVDESQFYDETYFASPKNKTPRVSGKLKEKLLQFVKTPEDLDRPRKRAIIHICRRIKKITGQDIDPEYISKLLYGLKRARRDKFRKINREIFRGLNWDFTQFEKCTFKCVLN	not soluble
MQVFDLSVDGATTIDIGASTGGFTDVMLQNSAKLVFAVDVGTNQLAWKLRQDPRVVSMEQFNFRYAEKTDFEQEPSFASIDVSFISLSLILPALHRVLADQGQVVALVKPQFEAGREQIGKNGIIRDAKVHQNVLESVTAMAVEVGFSVLGLDFSPIQGGHGNIEFLAYLKKEKSASNQILAEIKEAVERAHSQFKNE	not soluble
MMKTFHWKVDPDMGVDSEPQVSVVRFGDGYEQRRASGINNDLKKYSVTIRVDREDGPGLEGFLSQHNGVKAFLWTPPYGYRQIKVVCRKWSVKAGLLKTTFTATFEQVIS	not soluble
LYIRGLQPGTTDQDLVKLCQPYGKIVSTKAILDKTTNKCKGYGFVDFDSPSAAQKAVTALKASGVQAQMAKQ	soluble
MNQIDLNVTCRYAGVFHVEKNGRYSISRTEAADLCQAFNSTLPTMDQMKLALSKGFETCRYGFIEGNVVIPRIHPNAICAANHTGVYILVTSNTSHYDTYCFNASAPPEEDCTSVTDLPNSFDGPVTITIVNRDGTRYSKKGEYRTHQEDIDAS	soluble
AATITTSGTVLPTVTVAGHRAAIDEAPPLYKGGQVGSGARMGVLGNTAVMDTPFSVTSYSAQVIENNQARSVADIAAMDPSVRMSSARSNINEDLTMRGFSVSSADFALNGLFGLTPYWRAPLESIERVEVIKGPSAALFGMAPGSSVGGVVNLVPKRAGDTP	not soluble
RYDKPGDKIDDGTELKLKGEKLKYVSRGGLKLEKGLHVFGVSVANQIGIDIGASTGGFTDVMLQDGAKLVYAVDVGTNQLVWKLRQDPRVRSMEQYNFRYAQPEDFNEGQPVFASIDVSFISLSLILPALHNVLSDQGQVIALIKPQFEAGREQIGKKGIVKDKQIHEKVIQKVMDFASGYGFTVKGLDFSPIQGGHGN	not soluble

Reference: the DeepSol protein solubility set
